The values that follow come from paper PMC4507496 (Biochemical and biophysical research communications, 2015).

The target in this assay is T1, ATG7 W243A (human, UniProt O95352 1-703, W243A).
T1 sequence (looked up): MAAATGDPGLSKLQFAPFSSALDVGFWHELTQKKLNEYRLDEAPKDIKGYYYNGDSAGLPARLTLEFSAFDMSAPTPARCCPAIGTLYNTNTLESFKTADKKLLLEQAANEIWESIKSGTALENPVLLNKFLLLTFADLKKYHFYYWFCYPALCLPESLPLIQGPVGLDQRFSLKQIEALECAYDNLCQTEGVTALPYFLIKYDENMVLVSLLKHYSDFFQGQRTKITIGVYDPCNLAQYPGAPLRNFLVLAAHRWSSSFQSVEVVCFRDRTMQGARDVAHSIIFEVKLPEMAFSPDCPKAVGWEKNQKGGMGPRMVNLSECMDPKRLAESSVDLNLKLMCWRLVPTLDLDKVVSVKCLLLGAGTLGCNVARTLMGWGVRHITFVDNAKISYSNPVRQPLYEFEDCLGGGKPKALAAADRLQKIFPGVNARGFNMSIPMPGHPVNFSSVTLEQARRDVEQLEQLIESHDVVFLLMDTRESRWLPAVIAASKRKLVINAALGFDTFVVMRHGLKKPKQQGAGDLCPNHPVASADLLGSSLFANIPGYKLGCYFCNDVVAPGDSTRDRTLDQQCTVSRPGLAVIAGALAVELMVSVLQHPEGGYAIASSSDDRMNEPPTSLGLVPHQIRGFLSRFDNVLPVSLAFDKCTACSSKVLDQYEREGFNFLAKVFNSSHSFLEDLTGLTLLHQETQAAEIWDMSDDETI
As to the kind of experiment: pull-down.

B1: GST-ATG3 (enzyme)
chain: not shown
For B1, the binding result is listed as “binds”.
